The text below walks through data of publication PMC8674358.

Where “and” joins values, the source holds several entries; their conditions need not be identical. Equal values may be shown once.

For assay [1], the target named is IRE1-KR-3P: human IRE1α kinase-endoribonuclease module (residues G547-L977), fully phosphorylated (human) (UniProt O75460). As to the kind of experiment: cross-linking; 1 μg IRE1-KR (~0.8 μM) or various concentrations in RNA cleavage buffer (20 mM HEPES pH 7.5, 50 mM K acetate, 1 mM Mg acetate, 0.05% Triton X-100), 250 μM DSS, 1 h on ice; SDS-PAGE and IRE1α immunoblot; also with CRUK-3 (5 µM), which augmented KR-0P dimerization and oligomerization. For orientation: Immunoblotting shows a protein as a band on a membrane.

The target in assay [2] is IRE1-KR-0P: human IRE1α kinase-endoribonuclease module (residues G547-L977), unphosphorylated (human) (UniProt O75460). Described as above.

One may read the stoichiometry N as the number of molecules, sites or subunits per partner or assembly. Turning to “IRE1-KR-3P: human IRE1α kinase-endoribonuclease module (residues G547-L977), fully phosphorylated (from UniProt O75460 547-977) (domain or fragment)”, the stoichiometry N in assay [1] was 2 and 4 and 6.

Take “IRE1-KR-0P: human IRE1α kinase-endoribonuclease module (residues G547-L977), unphosphorylated (from UniProt O75460 547-977) (domain or fragment)”: in assay [2], the stoichiometry N is 2.
